One assay has as its target T1, His-GFP-Klp2 (S. pombe, UniProt Q9US03 1-817).
T1 sequence: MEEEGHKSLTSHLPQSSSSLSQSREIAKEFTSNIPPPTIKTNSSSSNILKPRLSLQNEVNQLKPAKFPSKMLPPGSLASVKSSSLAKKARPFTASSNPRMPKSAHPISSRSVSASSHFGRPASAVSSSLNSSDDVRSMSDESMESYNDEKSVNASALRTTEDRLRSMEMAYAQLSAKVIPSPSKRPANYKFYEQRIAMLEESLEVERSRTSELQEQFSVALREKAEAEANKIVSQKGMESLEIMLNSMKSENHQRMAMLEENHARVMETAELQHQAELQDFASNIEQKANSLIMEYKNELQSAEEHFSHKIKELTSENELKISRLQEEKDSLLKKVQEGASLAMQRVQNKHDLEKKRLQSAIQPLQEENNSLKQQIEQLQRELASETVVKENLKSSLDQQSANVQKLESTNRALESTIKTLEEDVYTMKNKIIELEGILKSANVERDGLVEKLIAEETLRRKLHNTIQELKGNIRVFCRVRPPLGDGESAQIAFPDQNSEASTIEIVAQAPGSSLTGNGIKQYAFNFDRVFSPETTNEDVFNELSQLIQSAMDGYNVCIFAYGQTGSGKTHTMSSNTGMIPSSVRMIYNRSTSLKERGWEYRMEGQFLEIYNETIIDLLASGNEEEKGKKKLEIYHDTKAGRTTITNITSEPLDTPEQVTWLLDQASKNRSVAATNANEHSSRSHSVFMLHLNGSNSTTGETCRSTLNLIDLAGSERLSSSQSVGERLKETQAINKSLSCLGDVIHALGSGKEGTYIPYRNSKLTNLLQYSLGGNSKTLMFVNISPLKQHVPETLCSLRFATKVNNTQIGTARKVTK
The experiment in a line: pull-down.

For the next assay, the target named is T2, StrepII-GFP-Klp2 (S. pombe, UniProt Q9US03 1-817).
T2 sequence: T1 sequence
The experiment in a line: TIRF microscopy of purified proteins on microtubules.

The values that follow come from paper PMC11698074 (Science Advances, 2025).

B1: GST-Rsp1 (natural protein)
chain: MARTAFHDEFVDYYTILGAESTSSYVEIRQQYLKLVLRYHPDRNPGREAEVLPQFQLIQKAHEVLKDPKLRELFDQRRLLEAGRPDGVLRFRPKKSGPKNDISTKVASKVSVTMATKFAEKKKKQDRENVDSKDNNITNFSLHRSFSASGKMEKNNSFKEVSTSKSYISSGYLHPKTSPIFKKNGYATENVVDPISSSPRFKGPNYNKFNAKLYLESLREKRRTYTPLSEISNGLNSNGVENSSITKSSPRSSSSSNNERFKDTSEESIIFTSPNTPEHPSVYQTDITPEIKLEHSDNNSPSKPEIPFRHPTSKPLPPKPLSRSKSSSLSRNQTRSQLNDLSAENDSTSNSTEYDDQLQSILRSLAIEGDDDEVAKVLPKPPSVPTIQAPIPPEAPRNLTNASVDSYLNSFEMYQRRWSSYSIIYTQYAFQWQIFKNKCFQLDLMNTPGQSRLIDNWKEGSQAIQLFYAYEQMHLRALEELQSLKESLFASFGI
Turning to B1, in the assay with His-GFP-Klp2, the binding result is “binds”.

B2: Rsp1-mCherry-StrepII (natural protein)
chain: B1 chain
For the molecule B2, the binding result in the assay with StrepII-GFP-Klp2 is recorded as “binds”.
